Assay results taken from patent US20260015426A1 (23ANDME, published 2026).

Assays:
[1] = biological target: T1, hu-M-IL1RAP construct, positions S21-T367 (extracellular domain of the membrane form of human IL1RAP) (human, UniProt Q9NPH3 21-367); test: SPR, Fab analyte, 25 C
T1 construct: Biotinylated when captured on the Biacore chip
T1 sequence: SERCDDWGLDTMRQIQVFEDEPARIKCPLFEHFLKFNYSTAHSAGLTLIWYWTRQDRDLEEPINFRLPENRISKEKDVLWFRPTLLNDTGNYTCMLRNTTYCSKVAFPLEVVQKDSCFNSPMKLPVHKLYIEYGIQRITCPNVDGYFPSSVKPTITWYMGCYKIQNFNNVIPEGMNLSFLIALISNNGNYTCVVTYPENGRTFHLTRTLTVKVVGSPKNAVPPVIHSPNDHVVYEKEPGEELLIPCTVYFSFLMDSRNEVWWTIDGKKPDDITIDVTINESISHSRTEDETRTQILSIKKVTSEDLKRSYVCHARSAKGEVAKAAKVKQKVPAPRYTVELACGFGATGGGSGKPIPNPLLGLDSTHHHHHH

[2] = biological target: T1, hu-M-IL1RAP construct, positions …; test: phage display selection of affinity maturation libraries + NGS; enrichment of the mutation R96A (VH)
Protocol: (§1) For the first panning round, plates and phage libraries were blocked in PBS buffer containing 0.05% TWEEN® 20 and 1% BSA for either 1 hour (plates) or 30 minutes (phage libraries). Plates were washed in Wash Buffer (PBS buffer containing 0.05% TWEEN® 20) and incubated with blocked phage libraries for 2 hours with shaking. Non-specifically bound phage was removed by washing vigorously with Wash Buffer. […] Non-specific interactions were inhibited by adding 1/10th v/v 1% BSA.
(§2) For panning rounds three through five, phage libraries were incubated with blocking buffer (PBS buffer with 1% BSA in round 3 and SUPERBLOCK™ PBS buffer (Pierce) and 0.05% TWEEN® 20 in rounds 4 and 5) for 30 minutes and then incubated with decreasing concentrations of biotinylated hu-M-IL1RAP for 1 hour. Hu-M-IL1RAP-bound phage were captured on blocked neutravidin-coated plates, washed extensively with Wash Buffer, and eluted and neutralized in the same manner as in rounds 1 and 2. In the final selection round, 1000× non-biotinylated hu-M-IL1RAP was added as a competitor to increase the selection stringency.
(§3) To extract sequences from affinity maturation libraries using NGS, phagemid double stranded DNA was isolated from E. coli XL-1 cells carrying phagemids from the initial phage library (unsorted libraries) and from the second and third rounds of solution selection (sorted libraries). […]

[3] = biological target: T1, hu-M-IL1RAP construct, positions …; test: SPR, Fab against parent Fab
[4] = biological target: T2, human IL1RAP (hu-IL1RAP) on human cells (human, UniProt Q9NPH3 21-570); test: cell-based or functional assay
T2 sequence: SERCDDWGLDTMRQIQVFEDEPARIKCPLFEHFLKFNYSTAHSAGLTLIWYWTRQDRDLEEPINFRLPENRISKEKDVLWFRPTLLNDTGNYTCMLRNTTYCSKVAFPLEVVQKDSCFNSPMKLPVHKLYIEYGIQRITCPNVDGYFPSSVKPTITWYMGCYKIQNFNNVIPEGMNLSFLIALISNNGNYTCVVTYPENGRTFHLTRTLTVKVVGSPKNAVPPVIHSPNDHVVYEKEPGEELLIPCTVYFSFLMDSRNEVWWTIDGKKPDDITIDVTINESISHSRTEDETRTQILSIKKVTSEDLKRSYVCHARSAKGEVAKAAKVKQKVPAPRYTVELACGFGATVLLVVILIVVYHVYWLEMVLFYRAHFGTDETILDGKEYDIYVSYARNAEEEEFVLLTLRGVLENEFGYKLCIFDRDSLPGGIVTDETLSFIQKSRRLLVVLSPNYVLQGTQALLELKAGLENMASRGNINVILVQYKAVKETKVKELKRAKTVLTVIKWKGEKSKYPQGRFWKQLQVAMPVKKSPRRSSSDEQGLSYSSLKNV

[5] = biological target: T1, hu-M-IL1RAP construct, positions …; test: SPR, Fab analyte, 37 C
Protocol: Surface plasmon resonance (SPR) analysis was used to determine binding affinity for hu-M-IL1RAP of the purified Fabs containing the selected single, double, and triple mutations in either the VL or VH regions using a BIACORE™ 8K instrument. […] For kinetics measurements, 5 nM biotinylated hu-M-IL1RAP was captured at 10 μL/min to achieve ˜50 response units in the second flow cell (FC2). FC1 was kept as a reference. […] The sensorgrams were recorded and subjected to reference and buffer subtraction before data analysis with the BIACORE® 8K Evaluation Software (version 1.1.1.7442). Association rates (kₒₙ) and dissociation rates (koff) were calculated using a simple one-to-one Langmuir binding model. The equilibrium dissociation constant (KD) was calculated as the ratio of koff/kₒₙ.

[6] = biological target: T1, hu-M-IL1RAP construct, positions …; test: phage display selection of affinity maturation libraries + NGS; enrichment of the mutation A51Y (VL)
Protocol: as §1, §2, §3

[7] = biological target: T1, hu-M-IL1RAP construct, positions …; test: phage display selection of affinity maturation libraries + NGS; enrichment of the mutation W92I (VL)
Protocol: as §1, §2, §3

[8] = biological target: T1, hu-M-IL1RAP construct, positions …; test: phage display selection of affinity maturation libraries + NGS; enrichment of the mutation T94I (VL)
Protocol: as §1, §2, §3

[9] = biological target: T1, hu-M-IL1RAP construct, positions …; test: phage display selection of affinity maturation libraries + NGS; enrichment of the mutation T94V (VL)
Protocol: as §1, §2, §3

B1: H1 Fab (VH R96A) (Fab, V domains shown)
VH: EVQLVESGGGLVQPGGSLRLSCAASGFTFSNYAMSWVRQAPGKGLEWVATVTEGGDYNYYLDDVKGRFTISRDNAKNSLYLQMNSLRAEDTAVYYCARDAWPYFFDYWGQGTLVTVSS
VL: DIQMTQSPSSLSASVGDRVTITCRASENIYSNLAWYQQKPGKSPKLLVYGAKNLADGVPSRFSGSGSGTDYTLTISSLQPEDFATYYCQHFWTTPRTFGGGTKVEIK
notes: Fab with 8xHis tag
Kd [1]: 0.125 nM
koff [1]: 0.000218 s⁻¹
kon [1]: 1.75e+06 M⁻¹ s⁻¹
Enrichment ratio (at the highest selection stringency) [2]: 4.55 ratio
Fold Improvement in KD @ 25° C. [3]: 2.7 fold

B2: K10 Fab (VL A51Y) (Fab, V domains shown)
VH: EVQLVESGGGLVQPGGSLRLSCAASGFTFSNYAMSWVRQAPGKGLEWVATVTEGGDYNYYLDDVKGRFTISRDNAKNSLYLQMNSLRAEDTAVYYCARDRWPYFFDYWGQGTLVTVSS
VL: DIQMTQSPSSLSASVGDRVTITCRASENIYSNLAWYQQKPGKSPKLLVYGYKNLADGVPSRFSGSGSGTDYTLTISSLQPEDFATYYCQHFWTTPRTFGGGTKVEIK
notes: Fab with 8xHis tag
HEK-Blue, IL-1β, % inhibition at 100 nM (Fab) [4]: 100%
HEK-Blue, IL-1β, IC50 (Fab) [4]: 0.66 nM
HEK-Blue, IL-33, % inhibition at 100 nM (Fab) [4]: 98%
HEK-Blue, IL-33, IC50 (Fab) [4]: 3.26 nM
HEK-Blue, IL-36α, % inhibition at 100 nM (Fab) [4]: 100%
HEK-Blue, IL-36α, IC50 (Fab) [4]: 0.706 nM
Kd [1]: 0.00855 nM
koff [1]: 5.06e-05 s⁻¹
kon [1]: 5.92e+06 M⁻¹ s⁻¹
Fold Improvement in KD @ 25° C. [3]: 39.4 fold
Fold Improvement in KD @ 37° C. [3]: 8.99 fold
Kd [5]: 0.0298 nM
koff [5]: 0.000153 s⁻¹
kon [5]: 5.12e+06 M⁻¹ s⁻¹
Enrichment ratio (at the highest selection stringency) [6]: 2.95 ratio

B3: K12 Fab (VL W92I) (Fab, V domains shown)
VH: EVQLVESGGGLVQPGGSLRLSCAASGFTFSNYAMSWVRQAPGKGLEWVATVTEGGDYNYYLDDVKGRFTISRDNAKNSLYLQMNSLRAEDTAVYYCARDRWPYFFDYWGQGTLVTVSS
VL: DIQMTQSPSSLSASVGDRVTITCRASENIYSNLAWYQQKPGKSPKLLVYGAKNLADGVPSRFSGSGSGTDYTLTISSLQPEDFATYYCQHFITTPRTFGGGTKVEIK
notes: Fab with 8xHis tag
Kd [1]: 0.0411 nM
koff [1]: 0.00023 s⁻¹
kon [1]: 5.58e+06 M⁻¹ s⁻¹
Fold Improvement in KD @ 25° C. [3]: 8.2 fold
Enrichment ratio (at the highest selection stringency) [7]: 3.36 ratio

B4: K14 Fab (VL T94I) (Fab, V domains shown)
VH: EVQLVESGGGLVQPGGSLRLSCAASGFTFSNYAMSWVRQAPGKGLEWVATVTEGGDYNYYLDDVKGRFTISRDNAKNSLYLQMNSLRAEDTAVYYCARDRWPYFFDYWGQGTLVTVSS
VL: DIQMTQSPSSLSASVGDRVTITCRASENIYSNLAWYQQKPGKSPKLLVYGAKNLADGVPSRFSGSGSGTDYTLTISSLQPEDFATYYCQHFWTIPRTFGGGTKVEIK
notes: Fab with 8xHis tag
Kd [1]: 0.0913 nM
koff [1]: 0.000543 s⁻¹
kon [1]: 5.95e+06 M⁻¹ s⁻¹
Fold Improvement in KD @ 25° C. [3]: 3.69 fold
Enrichment ratio (at the highest selection stringency) [8]: 1.74 ratio

B5: K15 Fab (VL T94V) (Fab, V domains shown)
VH: EVQLVESGGGLVQPGGSLRLSCAASGFTFSNYAMSWVRQAPGKGLEWVATVTEGGDYNYYLDDVKGRFTISRDNAKNSLYLQMNSLRAEDTAVYYCARDRWPYFFDYWGQGTLVTVSS
VL: DIQMTQSPSSLSASVGDRVTITCRASENIYSNLAWYQQKPGKSPKLLVYGAKNLADGVPSRFSGSGSGTDYTLTISSLQPEDFATYYCQHFWTVPRTFGGGTKVEIK
notes: Fab with 8xHis tag
Kd [1]: 0.12 nM
koff [1]: 0.00068 s⁻¹
kon [1]: 5.67e+06 M⁻¹ s⁻¹
Enrichment ratio (at the highest selection stringency) [9]: 0.987 ratio
Fold Improvement in KD @ 25° C. [3]: 2.81 fold
